Data on two compounds can be found in publication PMC4899218 (Molecular microbiology, 2016).

Assay [1] has as its target EDTA monooxygenase (EmoA) from Chelativorans sp. BNC1 (Chelativorans sp. BNC1). Briefly: SEC-MALS. On the technique in general: SEC sorts molecules by how far they enter the pores of the column.
In a further assay the target is EmoA (EDTA-degrading bacterium BNC1, UniProt Q9F9T3). Put plainly: ITC. The format is binding.

For orientation: stoichiometry N means the number of molecules, sites or subunits per partner or assembly. For orientation: Kd means the equilibrium constant for the complex coming apart. High values mean lower affinity, low ones higher affinity.

“EDTA monooxygenase (EmoA) from Chelativorans sp. BNC1 (enzyme)” had a stoichiometry N in assay [1] of 2.
In turn, `Cc1cc2nc3c(=O)[nH]c(=O)nc-3n(C[C@H](O)[C@H](O)[C@H](O)COP(=O)(O)O)c2cc1C` [FMN] yielded a Kd on EmoA of 330 nM.
